B1: Muscle, skeletal receptor tyrosine-protein kinase (Mus musculus), Q61006 (parent)
chain: MRELVNIPLLQMLTLVAFSGTEKLPKAPVITTPLETVDALVEEVATFMCAVESYPQPEISWTRNKILIKLFDTRYSIRENGQLLTILSVEDSDDGIYCCIANNGVGGAVESCGALQVKMKPKITRPPINVKIIEGLKAVLPCTTMGNPKPSVSWIKGDNALRENSRIAVLESGSLRIHNVQKEDAGQYRCVAKNSLGTAYSKLVKLEVEVFARILRAPESHNVTFGSFVTLRCTAIGIPVPTISWIENGNAVSSGSIQESVKDRVIDSRLQLFITKPGLYTCIATNKHGEKFSTAKAAATVSIAEWSKSQKDSQGYCAQYRGEVCDAVLAKDALVFFNTSYRDPEDAQELLIHTAWNELKAVSPLCRPAAEALLCNHLFQECSPGVVPTPMPICREYCLAVKELFCAKEWQAMEGKAHRGLYRSGMHLLPVPECSKLPSMHRDPTACTRLPYLDYKKENITTFPSITSSRPSADIPNLPASTSSFAVSPAYSMTVIISIVSSFALFALLTIATLYCCRRRKEWKNKKRESTAVTLTTLPSELLLDRLHPNPMYQRMPLLLNPKLLSLEYPRNNIEYVRDIGEGAFGRVFQARAPGLLPYEPFTMVAVKMLKEEASADMQADFQREAALMAEFDNPNIVKLLGVCAVGKPMCLLFEYMAYGDLNEFLRSMSPHTVCSLSHSDLSTRARVSSPGPPPLSCAEQLCIARQVAAGMAYLSERKFVHRDLATRNCLVGETMVVKIADFGLSRNIYSADYYKADGNDAIPIRWMPPESIFYNRYTTESDVWAYGVVLWEIFSYGLQPYYGMAHEEVIYYVRDGNILACPENCPLELYNLMRLCWSKLPADRPSFCSIHRILQRMCERAEGTVGV
partner: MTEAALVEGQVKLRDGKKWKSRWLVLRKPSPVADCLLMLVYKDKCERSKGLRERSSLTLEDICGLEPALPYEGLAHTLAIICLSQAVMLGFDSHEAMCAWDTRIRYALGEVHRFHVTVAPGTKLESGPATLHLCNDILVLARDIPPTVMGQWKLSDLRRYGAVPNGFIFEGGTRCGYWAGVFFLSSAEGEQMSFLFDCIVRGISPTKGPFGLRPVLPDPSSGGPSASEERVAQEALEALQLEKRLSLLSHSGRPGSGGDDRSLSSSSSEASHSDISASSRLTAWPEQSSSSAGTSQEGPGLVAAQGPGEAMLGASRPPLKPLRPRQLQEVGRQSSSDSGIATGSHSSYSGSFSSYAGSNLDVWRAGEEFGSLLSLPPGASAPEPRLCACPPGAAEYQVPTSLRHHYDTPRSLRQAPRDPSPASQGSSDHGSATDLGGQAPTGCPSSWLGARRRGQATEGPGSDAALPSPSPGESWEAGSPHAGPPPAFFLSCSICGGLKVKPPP

Variants of: B1
Settings: with dok7_mouse Dok7, Q18PE0

Variant	effect of a mutation on the interaction
A726V	disrupting interaction
M604I	decreasing interaction
